# Data from PMC3326527 (Journal of molecular biology, 2005).
# Target: the molecule itself
# Assay: crystal structure
protein,measurement,value
UDP-galactopyranose mutase from Mycobacterium tuberculosis (enzyme) MQPMTARFDLFVVGSGFFGLTIAERVATQLDKRVLVLERRPHIGGNAYSEAEPQTGIEVHKYGAHLFHTSNKRVWDYVRQFTDFTDYRHRVFAMHNGQAYQFPMGLGLVSQFFGKYFTPEQARQLIAEQAAEIDTADAQNLEEKAISLIGRPLYEAFVKGYTAKQWQTDPKELPAANITRLPVRYTFDNRYFSDTYEGLPTDGYTAWLQNMAADHRIEVRLNTDWFDVRGQLRPGSPAAPVVYTGPLDRYFDYAEGRLGWRTLDFEVEVLPIGDFQGTAVMNYNDLDVPYTRIHEFRHFHPERDYPTDKTVIMREYSRFAEDDDEPYYPINTEADRALLATYRARAKSETASSKVLFGGRLGTYQYLDMHMAIASALNMYDNVLAPHLRDGVPLLQDGA,binding result,binds
